# Laboratory results taken from the supplement of paper PMC11246515.
# ± gives the standard deviation of the averaged measurements.
# Experiment: total protein half-life in vivo (active degradation + dilution); higher = more stable protein
# [1] = E. coli NCM3722 delta-clpP delta-lon delta-hslV, growth: N-lim chemostat, doubling time 6 h
# [2] = wild type E. coli NCM3722, growth: C-lim chemostat, doubling time 3 h
# [3] = wild type E. coli NCM3722, growth: C-lim chemostat, doubling time 6 h
# [4] = wild type E. coli NCM3722, growth: C-lim chemostat, doubling time 12 h
# [5] = wild type E. coli NCM3722, growth: P-lim chemostat, doubling time 12 h
# [6] = E. coli NCM3722 delta-clpP, growth: N-lim chemostat, doubling time 6 h
# [7] = E. coli NCM3722 delta-hslV, growth: N-lim chemostat, doubling time 6 h
# [8] = E. coli NCM3722 delta-lon, growth: N-lim chemostat, doubling time 6 h
# [9] = E. coli NCM3722 delta-smpB, growth: N-lim chemostat, doubling time 6 h
# [10] = wild type E. coli NCM3722, growth: N-lim chemostat, doubling time 6 h
# [11] = wild type E. coli NCM3722, growth: N-lim chemostat, doubling time 12 h
# [12] = wild type E. coli NCM3722, growth: P-lim chemostat, doubling time 6 h
Sequence,total protein half-life in vivo [1] [h],total protein half-life in vivo [2] [h],total protein half-life in vivo [3] [h],total protein half-life in vivo [4] [h],total protein half-life in vivo [5] [h],total protein half-life in vivo [6] [h],total protein half-life in vivo [7] [h],total protein half-life in vivo [8] [h],total protein half-life in vivo [9] [h],total protein half-life in vivo [10] [h],total protein half-life in vivo [11] [h],total protein half-life in vivo [12] [h]
MITNTKLDPIETASVDELQALQTQRLKWTLKHAYENVPMYRRKFDAAGVHPDDFRELSDLRKFPCTTKQDLRDNYPFDTFAVPMEQVVRIHASSGTTGKPTVVGYTQNDIDNWANIVARSLRAAGGSPKDKIHVAYGYGLFTGGLGAHYGAERLGATVIPMSGGQTEKQAQLIRDFQPDMIMVTPSYCLNLIEELERQLGGDASGCSLRVGVFGAEPWTQAMRKEIERRLGITALDIYGLSEVMGPGVAMECLETTDGPTIWEDHFYPEIVNPHDGTPLADGEHGELLFTTLTKEALPVIRYRTRDLTRLLPGTARTMRRMDRISGRSDDMLIIRGVNVFPSQLEEEIVKFEHLSPHYQLEVNRRGHLDSLSVKVELKESSLTLTHEQRCQVCHQLRHRIKSMVGISTDVMIVNCGSIPRSEGKACRVFDLRNIVGA,4.99 ± 0.39,0.692 ± 0.075,0.955 ± 0.08,1.21 ± 0.14,0.624,,,,,,,
MSEKTFLVEIGTEELPPKALRSLAESFAANFTAELDNAGLAHGTVQWFAAPRRLALKVANLAEAQPDREIEKRGPAIAQAFDAEGKPSKAAEGWARGCGITVDQAERLTTDKGEWLLYRAHVKGESTEALLPNMVATSLAKLPIPKLMRWGASDVHFVRPVHTVTLLLGDKVIPATILGIQSDRVIRGHRFMGEPEFTIDNADQYPEILRERGKVIADYEERKAKIKADAEEAARKIGGNADLSESLLEEVASLVEWPVVLTAKFEEKFLAVPAEALVYTMKGDQKYFPVYANDGKLLPNFIFVANIESKDPQQIISGNEKVVRPRLADAEFFFNTDRKKRLEDNLPRLQTVLFQQQLGTLRDKTDRIQALAGWIAEQIGADVNHATRAGLLSKCDLMTNMVFEFTDTQGVMGMHYARHDGEAEDVAVALNEQYQPRFAGDDLPSNPVACALAIADKMDTLAGIFGIGQHPKGDKDPFALRRAALGVLRIIVEKNLNLDLQTLTEEAVRLYGDKLTNANVVDDVIDFMLGRFRAWYQDEGYTVDTIQAVLARRPTRPADFDARMKAVSHFRTLDAAAALAAANKRVSNILAKSDEVLSDRVNASTLKEPEEIKLAMQVVVLRDKLEPYFTEGRYQDALVELAELREPVDAFFDKVMVMVDDKELRINRLTMLEKLRELFLRVADISLLQ,6.02 ± 0.36,3.278 ± 0.0052,5.89 ± 0.085,11 ± 1,12.2 ± 1.2,6.28 ± 0.94,5.56 ± 0.53,5.82 ± 0.65,5.74 ± 0.6,5.72 ± 0.31,10.5 ± 0.11,6.31 ± 0.44
MKKQRNLRSMAAQAVEQVVEQGQSLSNILPPLQQKVSDKDKALLQELCFGVLRTLSQLDWLINKLMARPMTGKQRTVHYLIMVGLYQLLYTRIPPHAALAETVEGAIAIKRPQLKGLINGVLRQFQRQQEELLAEFNASDARYLHPSWLLKRLQKAYPEQWQSIVEANNQRPPMWLRINRTHHSRDSWLALLDEAGMKGFPHADYPDAVRLETPAPVHALPGFEDGWVTVQDASAQGCMTWLAPQNGEHILDLCAAPGGKTTHILEVAPEAQVVAVDIDEQRLSRVYDNLKRLGMKATVKQGDGRYPSQWCGEQQFDRILLDAPCSATGVIRRHPDIKWLRRDRDIPELAQLQSEILDAIWPHLKTGGTLVYATCSVLPEENSLQIKAFLQRTADAELCETGTPEQPGKQNLPGAEEGDGFFYAKLIKK,5.88 ± 1,2.88 ± 0.45,6.66 ± 1.9,12.4 ± 0.73,12.7 ± 0.89,5.642 ± 0.039,5.05 ± 1.1,5.17 ± 0.74,4.92 ± 0.25,6.14 ± 0.58,10.9 ± 0.76,6.96 ± 0.51
MTTFHSLTVAKVESETRDAVTITFAVPQPLQEAYRFRPGQHLTLKASFDGEELRRCYSICRSYLPGEISVAVKAIEGGRFSRYAREHIRQGMTLEVMVPQGHFGYQPQAERQGRYLAIAAGSGITPMLAIIATTLQTEPESQFTLIYGNRTSQSMMFRQALADLKDKYPQRLQLLCIFSQETLDSDLLHGRIDGEKLQSLGASLINFRLYDEAFICGPAAMMDDAETALKALGMPDKTIHLERFNTPGTRVKRSVNVQSDGQKVTVRQDGRDREIVLNADDESILDAALRQGADLPYACKGGVCATCKCKVLRGKVAMETNYSLEPDELAAGYVLSCQALPLTSDVVVDFDAKGMA,4.66 ± 0.67,,,,,,,,,,,
MKTLGEFIVEKQHEFSHATGELTALLSAIKLGAKIIHRDINKAGLVDILGASGAENVQGEVQQKLDLFANEKLKAALKARDIVAGIASEEEDEIVVFEGCEHAKYVVLMDPLDGSSNIDVNVSVGTIFSIYRRVTPVGTPVTEEDFLQPGNKQVAAGYVVYGSSTMLVYTTGCGVHAFTYDPSLGVFCLCQERMRFPEKGKTYSINEGNYIKFPNGVKKYIKFCQEEDKSTNRPYTSRYIGSLVADFHRNLLKGGIYLYPSTASHPDGKLRLLYECNPMAFLAEQAGGKASDGKERILDIIPETLHQRRSFFVGNDHMVEDVERFIREFPDA [P0A993],4.22 ± 0.099,2.93 ± 0.38,5.02 ± 0.3,8.6 ± 0.59,10.6 ± 0.24,3.02 ± 0.088,3.76 ± 0.66,3.84 ± 0.51,3.21 ± 0.12,3.19 ± 0.06,4.68 ± 0.09,5.796 ± 0.011
MSSLQILQGTFRLSDTKTLQLPQLTLNAGDSWAFVGSNGSGKSALARALAGELPLLKGERQSQFSHITRLSFEQLQKLVSDEWQRNNTDMLGPGEDDTGRTTAEIIQDEVKDAPRCMQLAQQFGITALLDRRFKYLSTGETRKTLLCQALMSEPDLLILDEPFDGLDVASRQQLAERLASLHQSGITLVLVLNRFDEIPEFVQFAGVLADCTLAETGAKEELLQQALVAQLAHSEQLEGVQLPEPDEPSARHALPANEPRIVLNNGVVSYNDRPILNNLSWQVNPGEHWQIVGPNGAGKSTLLSLVTGDHPQGYSNDLTLFGRRRGSGETIWDIKKHIGYVSSSLHLDYRVSTTVRNVILSGYFDSIGIYQAVSDRQQKLVQQWLDILGIDKRTADAPFHSLSWGQQRLALIVRALVKHPTLLILDEPLQGLDPLNRQLIRRFVDVLISEGETQLLFVSHHAEDAPACITHRLEFVPDGGLYRYVLTKIY,4.48 ± 0.27,2.84 ± 0.087,5.233 ± 0.03,9.21 ± 0.47,12 ± 0.93,4.73 ± 1.6,3.5748 ± 0.0019,4.54 ± 0.7,4 ± 0.68,3.942 ± 0.016,5.56 ± 0.14,5.68 ± 0.2
MILFVGFLLMEIVMPQISRTALVPYSAEQMYQLVNDVQSYPQFLPGCTGSRILESTPGQMTAAVDVSKAGISKTFTTRNQLTSNQSILMNLVDGPFKKLIGGWKFTPLSQEACRIEFHLDFEFTNKLIELAFGRVFKELAANMVQAFTVRAKEVYSAR [P0AGL5],0.854 ± 0.18,0.306,0.545,,1.13 ± 0.68,0.857,0.542,0.962,0.621 ± 0.022,0.714,,0.372
MLRFSANLSMLFGEYDFLARFEKAAQCGFRGVEFMFPYDYDIEELKHVLASNKLEHTLHNLPAGDWAAGERGIACIPGREEEFRDGVAAAIRYARALGNKKINCLVGKTPAGFSSEQIHATLVENLRYAANMLMKEDILLLIEPINHFDIPGFHLTGTRQALKLIDDVGCCNLKIQYDIYHMQRMEGELTNTMTQWADKIGHLQIADNPHRGEPGTGEINYDYLFKVIENSDYNGWVGCEYKPQTTTEAGLRWMDPYR,4.29 ± 0.63,,,10.1,7.81,5.97,,4.98,3.59 ± 0.17,3.73,6.46,5.52
MTMYATLEEAIDAAREEFLADNPGIDAEDANVQQFNAQKYVLQDGDIMWQVEFFADEGEEGECLPMLSGEAAQSVFDGDYDEIEIRQEWQEENTLHEWDEGEFQLEPPLDTEEGRAAADEWDER,,2.35 ± 0.29,3.94 ± 0.066,6.75 ± 1.1,7.26,6.11,3.33,3.3 ± 0.71,3.22 ± 0.1,3.33 ± 0.17,4.03,3.9 ± 0.2
MIDYKKNLLFILVFISGFILFTVYSYTAEKMIYNETCTANWVIFNDQGRANLTIDFMYNKKNKTGTVALSGTWQQGNRESKSIRRNIEYTWIENYDTAHLTSKKVNKFEIMDQVDDDRLAQLIPDFYVFPEKSVSYNILKQGKHAFILSIGNRAIMHCAR,,,,> 16,,,,,,,,
MLYVIYAQDKADSLEKRLSVRPAHLARLQLLHDEGRLLTAGPMPAVDSNDPGAAGFTGSTVIAEFESLEAAQAWADADPYVAAGVYEHVSVKPFKKVF [P0AB55],5.05 ± 0.14,,4.96 ± 0.49,9.37,,4.751 ± 0.018,4.51 ± 0.13,5.1 ± 0.41,5.34 ± 1,,7.02 ± 0.86,6
MTDLIQRPRRLRKSPALRAMFEETTLSLNDLVLPIFVEEEIDDYKAVEAMPGVMRIPEKHLAREIERIANAGIRSVMTFGISHHTDETGSDAWREDGLVARMSRICKQTVPEMIVMSDTCFCEYTSHGHCGVLCEHGVDNDATLENLGKQAVVAAAAGADFIAPSAAMDGQVQAIRQALDAAGFKDTAIMSYSTKFASSFYGPFREAAGSALKGDRKSYQMNPMNRREAIRESLLDEAQGADCLMVKPAGAYLDIVRELRERTELPIGAYQVSGEYAMIKFAALAGAIDEEKVVLESLGSIKRAGADLIFSYFALDLAEKKILR [P0ACB2],5.37 ± 0.27,2.99 ± 0.082,5.43 ± 0.14,9.8 ± 1.4,11.9 ± 0.21,5.78 ± 1.1,4.92 ± 0.25,5.46 ± 0.23,4.71 ± 0.18,5.01 ± 0.34,8.03 ± 0.4,5.96 ± 0.23
MSDNAQLTGLCDRFRGFYPVVIDVETAGFNAKTDALLEIAAITLKMDEQGWLMPDTTLHFHVEPFVGANLQPEALAFNGIDPNDPDRGAVSEYEALHEIFKVVRKGIKASGCNRAIMVAHNANFDHSFMMAAAERASLKRNPFHPFATFDTAALAGLALGQTVLSKACQTAGMDFDSTQAHSALYDTERTAVLFCEIVNRWKRLGGWPLSAAEEV,5.4962 ± 0.0014,2.54,5.95 ± 0.48,,12 ± 0.56,5.43 ± 0.51,5.13,6.1,,5.89,8.59,5.17
MRKGCFGLVSLVLLLLVGCRSHPEIPVNDEQSLVMESSLLAAGISAEKPFLSTSDIQPSASSTLYNERQEPVTVHYRFYWYDARGLEMHPLERPRSVTIPAHSAVTLYGSANFLGAHKVRLYLYL,5.4 ± 0.33,2.84,5.52,9.893 ± 0.025,11.8 ± 0.32,,5.89 ± 0.42,5.86 ± 0.36,5.34 ± 0.22,5.33,10.1,5.79
MNKSQLIDKIAAGADISKAAAGRALDAIIASVTESLKEGDDVALVGFGTFAVKERAARTGRNPQTGKEITIAAAKVPSFRAGKALKDAVN [P0ACF4],7.01 ± 0.69,2.88 ± 0.054,5.1 ± 0.35,7.44 ± 0.28,10.8 ± 0.92,,5.94 ± 0.61,6.96 ± 0.96,5.51 ± 0.24,5.035 ± 0.04,10.813 ± 0.0038,4.6 ± 0.72
MAAVNLRHIEIFHAVMTAGSLTEAAHLLHTSQPTVSRELARFEKVIGLKLFERVRGRLHPTVQGLRLFEEVQRSWYGLDRIVSAAESLREFRQGELSIACLPVFSQSFLPQLLQPFLARYPDVSLNIVPQESPLLEEWLSAQRHDLGLTETLHTPAGTERTELLSLDEVCVLPPGHPLAVKKVLTPDDFQGENYISLSRTDSYRQLLDQLFTEHQVKRRMIVETHSAASVCAMVRAGVGISVVNPLTALDYAASGLVVRRFSIAVPFTVSLIRPLHRPSSALVQAFSGHLQAGLPKLVTSLDAILSSATTA,7.04 ± 0.23,3.2 ± 0.26,6.28,11.805 ± 0.0096,13.1 ± 0.34,4.89,,,5.18 ± 2.1,5.91 ± 0.071,> 16,
MLAFIRFLFAGLLLVISHAFAATVQDEHGTFTLEKTPQRIVVLELSFADALAAVDVIPIGIADDNDAKRILPEVRAHLKPWQSVGTRAQPSLEAIAALKPDLIIADSSRHAGVYIALQQIAPVLLLKSRNETYAENLQSAAIIGEMVGKKREMQARLEQHKERMAQWASQLPKGTRVAFGTSREQQFNLHTQETWTGSVLASLGLNVPAAMAGASMPSIGLEQLLAVNPAWLLVAHYREESIVKRWQQDPLWQMLTAAQKQQVASVDSNTWARMRGIFAAERIAADTVKIFHHQPLTVVK,,,5.67,7.06,,,,,,,,
